For series [1], the target named is PNPase WT;Hfq (Escherichia coli;Escherichia coli) (UniProt P05055+P0A6X3). The series can be described thus: cryo-EM. Particulars: EMSA: 0.4 uM RNA, PNPase trimer 1:1 and 3:1 over RNA, 20 mM Tris pH 7.5, 100 mM NaCl, 1 mM MgCl2, 1 mM DTT, 30 C 20 min; native PAA gel with 10% glycerol ….
In series [2] the target is PNPase S1x4;Hfq R681A;Q682A;R684A;R686A (Escherichia coli;Escherichia coli) (UniProt P05055+P0A6X3). In words: EMSA. Particulars: EMSA: 0.4 uM RNA, PNPase trimer 1:1 and 3:1 over RNA, 20 mM Tris pH 7.5, 100 mM NaCl, 1 mM MgCl2, 1 mM DTT, 30 C 20 min; native PAA gel with 10% glycerol ….

In the case of “GCGAUCAGGAAGACCCUCGCGGAGAACCUGAAAGCACGACAUUGCUCACAUUGCUUCCAGUAUUACUUAGCCAGCCGGGUGCUGGCUUUUUUUUU [RyhB]”, the binding result in series [1] was “binds”; in series [2] it was “no binding”.

Source of the values: article PMC8294330.
